Publication PMC6751169, “Modular enzyme assembly for enhanced cascade biocatalysis and metabolic flux” (Nature Communications, 2019)

Target: the molecule itself
Assay: not stated; oligomeric state of the untagged enzymes; the sentence points to Supplementary Figs. 1 and 2

B1: MenD (2-succinyl-5-enolpyruvyl-6-hydroxy-3-cyclohexadiene-1-carboxylate synthase), untagged (enzyme, E. coli, UniProt P17109 1-556, looked up)
chain: MSVSAFNRRWAAVILEALTRHGVRHICIAPGSRSTPLTLAAAENSAFIHHTHFDERGLGHLALGLAKVSKQPVAVIVTSGTAVANLYPALIEAGLTGEKLILLTADRPPELIDCGANQAIRQPGMFASHPTHSISLPRPTQDIPARWLVSTIDHALGTLHAGGVHINCPFAEPLYGEMDDTGLSWQQRLGDWWQDDKPWLREAPRLESEKQRDWFFWRQKRGVVVAGRMSAEEGKKVALWAQTLGWPLIGDVLSQTGQPLPCADLWLGNAKATSELQQAQIVVQLGSSLTGKRLLQWQASCEPEEYWIVDDIEGRLDPAHHRGRRLIANIADWLELHPAEKRQPWCVEIPRLAEQAMQAVIARRDAFGEAQLAHRICDYLPEQGQLFVGNSLVVRLIDALSQLPAGYPVYSNRGASGIDGLLSTAAGVQRASGKPTLAIVGDLSALYDLNALALLRQVSAPLVLIVVNNNGGQIFSLLPTPQSERERFYLMPQNVHFEHAAAMFELKYHRPQNWQELETAFADAWRTPTTTVIEMVVNDTDGAQTLQQLLAQVSHL
notes: MenD, 2-succinyl-5-enolpyruvyl-6-hydroxy-3-cyclohexadiene-1-carboxylate synthase, E. coli; subunit 63 kDa; 'Untagged' means without RIAD or RIDD; also called untagged MenD; non-tagged enzyme
  stoichiometry N: 4
